# Laboratory results published in patent US11965039B2, “Compstatin analogues and their medical uses” (priority 2018, dated 2024).
# Starred links: 1 amine or outer side, 2 acyl side, 3 side chain; linkers in the order of their positions; H or OH if unused. Positions of bridges follow the written chain, without caps; N, C: chain ends. Non-standard residues stand in square brackets, D forms with d. Groups on a side chain read outwards from the residue. *: point of attachment. Trp(1-Me) = Cn1cc(C[C@H](N)C(=O)O)c2ccccc21; C16 diacid = O=C(O)CCCCCCCCCCCCCCC(=O)*; γGlu = O=C(O)[C@H](CCC(=O)[*:2])N[*:1]; AEEA = NCCOCCOCC(=O)O; Sar = CNCC(=O)O
# B1: Compound 80 (peptide)
# peptide: Ac-EFCI[Trp(1-Me)]QDWGEHRC[Sar]EA-NH2
# modifications: disulfide 3-13
# SMILES: CC[C@H](C)[C@@H]1NC(=O)[C@@H](NC(=O)[C@H](Cc2ccccc2)NC(=O)[C@H](CCC(=O)O)NC(C)=O)CSSC[C@@H](C(=O)N(C)CC(=O)N[C@@H](CCC(=O)O)C(=O)N[C@@H](C)C(N)=O)NC(=O)[C@H](CCCNC(=N)N)NC(=O)[C@H](Cc2c[nH]cn2)NC(=O)[C@H](CCC(=O)O)NC(=O)CNC(=O)[C@H](Cc2c[nH]c3ccccc23)NC(=O)[C@H](CC(=O)O)NC(=O)[C@H](CCC(N)=O)NC(=O)[C@H](Cc2cn(C)c3ccccc23)NC1=O
# B2: Compound 83 (peptide)
# peptide: Ac-SEFCI[Trp(1-Me)]QEWGEHRC[Sar]EA-NH2
# modifications: disulfide 4-14
# SMILES: CC[C@H](C)[C@@H]1NC(=O)[C@@H](NC(=O)[C@H](Cc2ccccc2)NC(=O)[C@H](CCC(=O)O)NC(=O)[C@H](CO)NC(C)=O)CSSC[C@@H](C(=O)N(C)CC(=O)N[C@@H](CCC(=O)O)C(=O)N[C@@H](C)C(N)=O)NC(=O)[C@H](CCCNC(=N)N)NC(=O)[C@H](Cc2c[nH]cn2)NC(=O)[C@H](CCC(=O)O)NC(=O)CNC(=O)[C@H](Cc2c[nH]c3ccccc23)NC(=O)[C@H](CCC(=O)O)NC(=O)[C@H](CCC(N)=O)NC(=O)[C@H](Cc2cn(C)c3ccccc23)NC1=O
# B3: Compound 79 (peptide)
# peptide: Ac-SEFCI[Trp(1-Me)]QDW[Sar]EHRC[Sar]E-NH2
# modifications: disulfide 4-14
# SMILES: CC[C@H](C)[C@@H]1NC(=O)[C@@H](NC(=O)[C@H](Cc2ccccc2)NC(=O)[C@H](CCC(=O)O)NC(=O)[C@H](CO)NC(C)=O)CSSC[C@@H](C(=O)N(C)CC(=O)N[C@@H](CCC(=O)O)C(N)=O)NC(=O)[C@H](CCCNC(=N)N)NC(=O)[C@H](Cc2c[nH]cn2)NC(=O)[C@H](CCC(=O)O)NC(=O)CN(C)C(=O)[C@H](Cc2c[nH]c3ccccc23)NC(=O)[C@H](CC(=O)O)NC(=O)[C@H](CCC(N)=O)NC(=O)[C@H](Cc2cn(C)c3ccccc23)NC1=O
# B4: Compound 84 (peptide)
# peptide: Ac-SEFCI[Trp(1-Me)]QDWGEHRCSEA-NH2
# modifications: disulfide 4-14
# SMILES: CC[C@H](C)[C@@H]1NC(=O)[C@@H](NC(=O)[C@H](Cc2ccccc2)NC(=O)[C@H](CCC(=O)O)NC(=O)[C@H](CO)NC(C)=O)CSSC[C@@H](C(=O)N[C@@H](CO)C(=O)N[C@@H](CCC(=O)O)C(=O)N[C@@H](C)C(N)=O)NC(=O)[C@H](CCCNC(=N)N)NC(=O)[C@H](Cc2c[nH]cn2)NC(=O)[C@H](CCC(=O)O)NC(=O)CNC(=O)[C@H](Cc2c[nH]c3ccccc23)NC(=O)[C@H](CC(=O)O)NC(=O)[C@H](CCC(N)=O)NC(=O)[C@H](Cc2cn(C)c3ccccc23)NC1=O
# B5: Compound 91 (peptide)
# peptide: H-[dY][Sar]CI[Trp(1-Me)]QDWGEHRCTEA-NH2
# modifications: disulfide 3-13
# SMILES: CC[C@H](C)[C@@H]1NC(=O)[C@@H](NC(=O)CN(C)C(=O)[C@H](N)Cc2ccc(O)cc2)CSSC[C@@H](C(=O)N[C@H](C(=O)N[C@@H](CCC(=O)O)C(=O)N[C@@H](C)C(N)=O)[C@@H](C)O)NC(=O)[C@H](CCCNC(=N)N)NC(=O)[C@H](Cc2c[nH]cn2)NC(=O)[C@H](CCC(=O)O)NC(=O)CNC(=O)[C@H](Cc2c[nH]c3ccccc23)NC(=O)[C@H](CC(=O)O)NC(=O)[C@H](CCC(N)=O)NC(=O)[C@H](Cc2cn(C)c3ccccc23)NC1=O
# B6: Compound 92 (peptide)
# peptide: Ac-ICIWQDWGEHRCTEGK([γGlu-C16 diacid])-NH2
# modifications: disulfide 2-12
# SMILES: CC[C@H](C)[C@H](NC(C)=O)C(=O)N[C@H]1CSSC[C@@H](C(=O)N[C@H](C(=O)N[C@@H](CCC(=O)O)C(=O)NCC(=O)N[C@@H](CCCCNC(=O)CC[C@H](NC(=O)CCCCCCCCCCCCCCC(=O)O)C(=O)O)C(N)=O)[C@@H](C)O)NC(=O)[C@H](CCCNC(=N)N)NC(=O)[C@H](Cc2c[nH]cn2)NC(=O)[C@H](CCC(=O)O)NC(=O)CNC(=O)[C@H](Cc2c[nH]c3ccccc23)NC(=O)[C@H](CC(=O)O)NC(=O)[C@H](CCC(N)=O)NC(=O)[C@H](Cc2c[nH]c3ccccc23)NC(=O)[C@H]([C@@H](C)CC)NC1=O
# B7: Compound 77 (peptide)
# peptide: Ac-SEFCI[Trp(1-Me)]QDW[Sar]EHRCTEA-NH2
# modifications: disulfide 4-14
# SMILES: CC[C@H](C)[C@@H]1NC(=O)[C@@H](NC(=O)[C@H](Cc2ccccc2)NC(=O)[C@H](CCC(=O)O)NC(=O)[C@H](CO)NC(C)=O)CSSC[C@@H](C(=O)N[C@H](C(=O)N[C@@H](CCC(=O)O)C(=O)N[C@@H](C)C(N)=O)[C@@H](C)O)NC(=O)[C@H](CCCNC(=N)N)NC(=O)[C@H](Cc2c[nH]cn2)NC(=O)[C@H](CCC(=O)O)NC(=O)CN(C)C(=O)[C@H](Cc2c[nH]c3ccccc23)NC(=O)[C@H](CC(=O)O)NC(=O)[C@H](CCC(N)=O)NC(=O)[C@H](Cc2cn(C)c3ccccc23)NC1=O
# B8: Compound 87 (peptide)
# peptide: Ac-GEFCI[Trp(1-Me)]QDWGEHRC[Sar]EA-NH2
# modifications: disulfide 4-14
# SMILES: CC[C@H](C)[C@@H]1NC(=O)[C@@H](NC(=O)[C@H](Cc2ccccc2)NC(=O)[C@H](CCC(=O)O)NC(=O)CNC(C)=O)CSSC[C@@H](C(=O)N(C)CC(=O)N[C@@H](CCC(=O)O)C(=O)N[C@@H](C)C(N)=O)NC(=O)[C@H](CCCNC(=N)N)NC(=O)[C@H](Cc2c[nH]cn2)NC(=O)[C@H](CCC(=O)O)NC(=O)CNC(=O)[C@H](Cc2c[nH]c3ccccc23)NC(=O)[C@H](CC(=O)O)NC(=O)[C@H](CCC(N)=O)NC(=O)[C@H](Cc2cn(C)c3ccccc23)NC1=O
# B9: Compound 78 (peptide)
# peptide: Ac-SEFCI[Trp(1-Me)]QDWGEHRC[Sar]E-NH2
# modifications: disulfide 4-14
# SMILES: CC[C@H](C)[C@@H]1NC(=O)[C@@H](NC(=O)[C@H](Cc2ccccc2)NC(=O)[C@H](CCC(=O)O)NC(=O)[C@H](CO)NC(C)=O)CSSC[C@@H](C(=O)N(C)CC(=O)N[C@@H](CCC(=O)O)C(N)=O)NC(=O)[C@H](CCCNC(=N)N)NC(=O)[C@H](Cc2c[nH]cn2)NC(=O)[C@H](CCC(=O)O)NC(=O)CNC(=O)[C@H](Cc2c[nH]c3ccccc23)NC(=O)[C@H](CC(=O)O)NC(=O)[C@H](CCC(N)=O)NC(=O)[C@H](Cc2cn(C)c3ccccc23)NC1=O
# B10: Compound 93 (peptide)
# peptide: Ac-ICIWQDWGEHRCTEGK([AEEA-AEEA-γGlu-C16 diacid])-NH2
# modifications: disulfide 2-12
# SMILES: CC[C@H](C)[C@H](NC(C)=O)C(=O)N[C@H]1CSSC[C@@H](C(=O)N[C@H](C(=O)N[C@@H](CCC(=O)O)C(=O)NCC(=O)N[C@@H](CCCCNC(=O)COCCOCCNC(=O)COCCOCCNC(=O)CC[C@H](NC(=O)CCCCCCCCCCCCCCC(=O)O)C(=O)O)C(N)=O)[C@@H](C)O)NC(=O)[C@H](CCCNC(=N)N)NC(=O)[C@H](Cc2c[nH]cn2)NC(=O)[C@H](CCC(=O)O)NC(=O)CNC(=O)[C@H](Cc2c[nH]c3ccccc23)NC(=O)[C@H](CC(=O)O)NC(=O)[C@H](CCC(N)=O)NC(=O)[C@H](Cc2c[nH]c3ccccc23)NC(=O)[C@H]([C@@H](C)CC)NC1=O
# B11: Compound 90 (peptide)
# peptide: Ac-SE[Sar]CI[Trp(1-Me)]QEWGEHRC[Sar]EA-NH2
# modifications: disulfide 4-14
# SMILES: CC[C@H](C)[C@@H]1NC(=O)[C@@H](NC(=O)CN(C)C(=O)[C@H](CCC(=O)O)NC(=O)[C@H](CO)NC(C)=O)CSSC[C@@H](C(=O)N(C)CC(=O)N[C@@H](CCC(=O)O)C(=O)N[C@@H](C)C(N)=O)NC(=O)[C@H](CCCNC(=N)N)NC(=O)[C@H](Cc2c[nH]cn2)NC(=O)[C@H](CCC(=O)O)NC(=O)CNC(=O)[C@H](Cc2c[nH]c3ccccc23)NC(=O)[C@H](CCC(=O)O)NC(=O)[C@H](CCC(N)=O)NC(=O)[C@H](Cc2cn(C)c3ccccc23)NC1=O
# B12: Compound 89 (peptide)
# peptide: Ac-SE[Sar]CI[Trp(1-Me)]QEW[Sar]EHRCTEA-NH2
# modifications: disulfide 4-14
# SMILES: CC[C@H](C)[C@@H]1NC(=O)[C@@H](NC(=O)CN(C)C(=O)[C@H](CCC(=O)O)NC(=O)[C@H](CO)NC(C)=O)CSSC[C@@H](C(=O)N[C@H](C(=O)N[C@@H](CCC(=O)O)C(=O)N[C@@H](C)C(N)=O)[C@@H](C)O)NC(=O)[C@H](CCCNC(=N)N)NC(=O)[C@H](Cc2c[nH]cn2)NC(=O)[C@H](CCC(=O)O)NC(=O)CN(C)C(=O)[C@H](Cc2c[nH]c3ccccc23)NC(=O)[C@H](CCC(=O)O)NC(=O)[C@H](CCC(N)=O)NC(=O)[C@H](Cc2cn(C)c3ccccc23)NC1=O
# B13: Compound 88 (peptide)
# peptide: Ac-GE[Sar]CI[Trp(1-Me)]QDWGEHRCTEA-NH2
# modifications: disulfide 4-14
# SMILES: CC[C@H](C)[C@@H]1NC(=O)[C@@H](NC(=O)CN(C)C(=O)[C@H](CCC(=O)O)NC(=O)CNC(C)=O)CSSC[C@@H](C(=O)N[C@H](C(=O)N[C@@H](CCC(=O)O)C(=O)N[C@@H](C)C(N)=O)[C@@H](C)O)NC(=O)[C@H](CCCNC(=N)N)NC(=O)[C@H](Cc2c[nH]cn2)NC(=O)[C@H](CCC(=O)O)NC(=O)CNC(=O)[C@H](Cc2c[nH]c3ccccc23)NC(=O)[C@H](CC(=O)O)NC(=O)[C@H](CCC(N)=O)NC(=O)[C@H](Cc2cn(C)c3ccccc23)NC1=O
# Molecular target: Human C3 (Complement tech cat #A113c) (human, UniProt P01024 23-1663)
# Sequence (P01024 23-1663 limits assumed): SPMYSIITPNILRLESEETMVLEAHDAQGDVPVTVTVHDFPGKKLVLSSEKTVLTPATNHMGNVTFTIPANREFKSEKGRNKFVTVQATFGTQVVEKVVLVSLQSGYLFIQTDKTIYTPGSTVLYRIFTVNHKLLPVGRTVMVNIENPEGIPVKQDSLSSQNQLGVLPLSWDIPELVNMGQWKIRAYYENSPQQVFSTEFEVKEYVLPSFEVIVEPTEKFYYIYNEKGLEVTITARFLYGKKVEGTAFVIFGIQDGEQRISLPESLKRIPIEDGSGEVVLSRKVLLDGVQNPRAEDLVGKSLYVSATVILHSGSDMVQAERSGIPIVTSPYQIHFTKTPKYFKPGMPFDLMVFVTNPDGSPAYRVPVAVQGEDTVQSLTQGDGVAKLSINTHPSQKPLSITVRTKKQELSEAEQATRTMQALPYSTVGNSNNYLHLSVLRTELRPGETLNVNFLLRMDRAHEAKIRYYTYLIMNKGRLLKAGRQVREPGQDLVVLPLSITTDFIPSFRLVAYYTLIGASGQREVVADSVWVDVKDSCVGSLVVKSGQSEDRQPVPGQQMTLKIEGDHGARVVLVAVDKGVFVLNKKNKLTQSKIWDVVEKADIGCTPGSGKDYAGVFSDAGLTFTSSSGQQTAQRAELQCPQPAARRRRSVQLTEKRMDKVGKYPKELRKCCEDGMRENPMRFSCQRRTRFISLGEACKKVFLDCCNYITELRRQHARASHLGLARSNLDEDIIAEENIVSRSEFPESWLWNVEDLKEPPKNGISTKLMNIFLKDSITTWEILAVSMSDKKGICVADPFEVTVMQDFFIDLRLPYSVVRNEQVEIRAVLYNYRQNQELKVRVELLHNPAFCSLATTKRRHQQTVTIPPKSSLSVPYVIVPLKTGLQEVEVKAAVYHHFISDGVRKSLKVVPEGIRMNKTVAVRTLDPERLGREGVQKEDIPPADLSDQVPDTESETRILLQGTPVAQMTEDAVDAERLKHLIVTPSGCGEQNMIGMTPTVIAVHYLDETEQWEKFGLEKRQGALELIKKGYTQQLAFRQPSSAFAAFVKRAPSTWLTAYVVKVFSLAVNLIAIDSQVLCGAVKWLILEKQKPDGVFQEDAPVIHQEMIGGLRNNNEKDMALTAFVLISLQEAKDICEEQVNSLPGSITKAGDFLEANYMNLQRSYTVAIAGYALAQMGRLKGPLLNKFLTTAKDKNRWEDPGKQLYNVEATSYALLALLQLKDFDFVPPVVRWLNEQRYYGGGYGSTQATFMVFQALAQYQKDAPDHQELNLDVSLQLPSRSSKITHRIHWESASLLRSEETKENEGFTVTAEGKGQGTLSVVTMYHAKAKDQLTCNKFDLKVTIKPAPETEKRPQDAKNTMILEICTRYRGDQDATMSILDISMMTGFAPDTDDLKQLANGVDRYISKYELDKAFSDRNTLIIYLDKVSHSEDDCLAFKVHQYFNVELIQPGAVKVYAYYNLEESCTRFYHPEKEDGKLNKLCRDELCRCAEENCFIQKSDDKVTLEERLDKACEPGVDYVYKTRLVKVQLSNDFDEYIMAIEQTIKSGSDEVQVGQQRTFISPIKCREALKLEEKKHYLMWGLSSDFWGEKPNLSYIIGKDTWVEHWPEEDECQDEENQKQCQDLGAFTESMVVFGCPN
# Test: cell-based or functional assay
row,Binder,inhibition of hemolysis IC50
1,B1,< 100 nM
2,B2,< 100 nM
3,B3,< 100 nM
4,B4,< 100 nM
5,B5,< 100 nM
6,B6,< 1000 nM
7,B7,< 100 nM
8,B8,< 100 nM
9,B9,< 100 nM
10,B10,< 500 nM
11,B11,< 250 nM
12,B12,< 100 nM
13,B13,< 100 nM
